Results reported in patent US20160176928A1 (Bristol-Myers Squibb, published 2016).

Target: T1, Recombinant Human PD-L1-TVMV-His, hPDL1(19-239)-TVMV-His (human, UniProt Q9NZQ7 19-239)
T1 construct: also called PD-L1-His; soluble PD-L1
Assay: HTRF competition of PD-1-Ig binding to PD-L1-His; grade, legend paragraph 524: A=0.10-10 µM
Experimental: Homogenous Time-Resolved Fluorescence (HTRF) Assays of Binding of Soluble PD-1 to Soluble PD-L1. Soluble PD-1 and soluble PD-L1 refers to proteins with carboxyl-end truncations that remove the transmembrane-spanning regions and are fused to heterologous sequences, specifically the Fc portion of the human immunoglobuling G sequence (Ig) or the hexahistidine epitope tag (His). All binding studies were performed in an HTRF assay buffer consisting of dPBS supplemented with 0.1% (w/v) bovine serum albumin and 0.05% (v/v) Tween-20. For the PD-1-Ig/PD-L1-His binding assay, inhibitors were pre-incubated with PD-L1-His (10 nM final) for 15 m in 4 μl of assay buffer, followed by addition of PD-1-Ig (20 nM final) in 1 μl of assay buffer and further incubation for 15m. PD-L1 fusion proteins from either human, cynomologous macaques, mouse, or other species were used. HTRF detection was achieved using europium crypate-labeled anti-Ig monoclonal antibody (1 nM final) and allophycocyanin (APC) labeled anti-His monoclonal antibody (20 nM final). Antibodies were diluted in HTRF detection buffer and 5 μl was dispensed on top of binding reaction. The reaction was allowed to equilibrate for 30 minutes and signal (665 nm/620 nm ratio) was obtained using an EnVision fluorometer. […]

T1 sequence (Q9NZQ7 other isoform, or with tags, fused parts or gaps limits assumed): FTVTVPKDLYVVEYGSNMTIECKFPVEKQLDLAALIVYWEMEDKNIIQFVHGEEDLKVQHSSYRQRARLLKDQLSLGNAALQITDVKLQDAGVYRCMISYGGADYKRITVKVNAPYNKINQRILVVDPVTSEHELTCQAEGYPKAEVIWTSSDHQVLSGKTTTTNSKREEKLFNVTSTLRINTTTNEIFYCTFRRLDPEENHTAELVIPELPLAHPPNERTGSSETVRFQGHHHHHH

B1: Example 1001 (peptide)
peptide: FANPHLXWSWXXRCG
modifications: not fully specified; N-terminal acetyl group (from chloroacetyl capping) joined as a thioether to the side chain of Cys 14 (macrocycle); N-methyl-Ala at 2; X at 7 = residue from 'Fmoc-Cyclopenty-Gly-OH'; X at 11 and 12 = N-methyl-norleucine; C-terminal amide (Rink resin)
notes: the structure itself is only a drawing (CHEM-US-00006)
B1 showed an IC50 of 0.1 to 10 µM.
